Here are results for 21 molecules from patent US20250186614A1, “COMPACT DRUG RESPONSIVE DOMAINS FOR REGULATION OF FUNCTION/ABUNDANCE AND DELIVERY OF POLYPEPTIDE PAYLOADS” (OBSIDIAN THERAPEUTICS, INC., priority 2022, published 2025).

Like-named read-outs stand apart in the source and are kept apart here.

The nature of the assay: Example 4: dose response of FKBP constructs 160-255, Ec50, Ec90 and fold change (raw and normalized to mCherry). In kind it is cell-based. Conditions: for FC (fold change): fold change during initial analysis. As for the experimental part: Additional experiments were performed for constructs FKBP-160-292.
Setting [1] is: FKBP constructs 160-255, not normalized, read-out: EC90.
[2] abbreviates: normalized to mCherry, read-out: EC90 (Norm).

B1: FKBP-249 (protein)
chain: HCPIKSRKGDVLHMHYTGKLEDGTEFDDSLPRNQPFVFSLGTGERIKGWDQGLLGMCEGEKRKLVIPSELGYGERGWPPKIPGGATLVFEVELLKIER
modifications: Description of sequence: Construct Name: FKBP-249; Mutation(s): Q72R Q84E A117W V85R DRD S68D
A word on the EC90: it is the point of the concentration-response curve where the effect stands at 90%. With B1, the “FC (fold change)” value was found to be 33.7. Besides, the EC90 under setting [1] worked out at 472 nM. For the same molecule, under setting [2], the concentration for an effect of 90% (EC90) was 494 nM.

B2: FKBP-180 (protein)
chain: HCPIKSRKGDVLHAHYTGKLEDGTEFDSSLPRNQPFVFSLGTGEVIKGWDQGLLGMCEGEKRKLVIPSELGYGERGWPPKIPGGATLVTEVELLKIER
modifications: Description of sequence: Construct Name: FKBP-180; Mutation(s): Q72R Q84E A117W DRD M54A F129T
Turning to B2, the “FC (fold change)” value stood at 1.2.

B3: FKBP-255: FKBP13 DRD-AcGFP construct of Table 10 (protein)
chain: HCPIKSRKGDVLHMHYTGKLEDGTEFDSSLPRNQPFVFSLGTGERIKGWDQGLLGMCEREKRKLVIPSELGYGERGWPPKIPGGATLVFEVELLKIER
modifications: Description of sequence: Construct Name: FKBP-255; Mutation(s): Q72R Q84E A117W V85R DRD G99R
For B3, the “FC (fold change)” value turned out to be 33.0. Also, under setting [1], the EC90 came to 101 nM. The EC90 under setting [2] came out at 101 nM.

B4: FKBP-250 (protein)
chain: HCPIKSRKGDVLHMHYTGKLEDGTEFDSSLPRNQPFVFSLGTGEVIKGWDQGLLGMCEGEKRKLVIPSELGYGERGWPPKIPGGATLVFFVELLKIER
modifications: Description of sequence: Construct Name: FKBP-250; Mutation(s): Q72R Q84E A117W DRD E130F
Consider B4, for which the “FC (fold change)” value is 22.0. Besides, the EC90 under setting [1] came out at 101 nM. Also, under setting [2], the EC90 was determined as 114 nM.

B5: FKBP-173 (protein)
chain: HCPIKSRKGDVLHAHYTGKLEDGTEFDSSLPRNQPFVFSLGTGEVIKGWDQGLLGMCEGEKRKLVIPSELGYGERGWPPKIPGGATLVFEVEGLKIER
modifications: Description of sequence: Construct Name: FKBP-173; Mutation(s): Q72R Q84E A117W DRD M54A L133G
Consider B5, for which the “FC (fold change)” value came to 4.

B6: FKBP-192: FKBP13 DRD-AcGFP construct of Table 10 (protein)
chain: HCPIKSRKGDVLHMHYTGKLEDGTEFDSSLPRNQLFVFSLGTGERIKGWDQGLLGMCEGEKRKLVIPSELGYGERGWPPKIPGGATLVFEVELLKIER
modifications: Description of sequence: Construct Name: FKBP-192; Mutation(s): Q72R Q84E A117W V85R DRD P75L
For B6, the “FC (fold change)” value stood at 55.0. Further, the concentration for an effect of 90% (EC90) under setting [1] came out at 230 nM. In addition, the concentration for an effect of 90% (EC90) under setting [2] was 228 nM.

B7: FKBP-179 (protein)
chain: HCPIKSRKGDVLGAHYTGKLEDGTEFDSSLPLNQPFVFSLGTGEVIKGWDQGLLGMCEGEKRKLVIPSELGYGERGWPPKIPGGATLVFEVELLKIER
modifications: Description of sequence: Construct Name: FKBP-179; Mutation(s): Q72R Q84E A117W DRD M54A H53G R72L
B7: the “FC (fold change)” value was 3.1.

B8: FKBP-252 (protein)
chain: HCPIKSRKGDVLHMHYTGKLEDGTEFDSSLPRNQPFVFSLGTGEVIKGWDQGLLGMCEGEKRKLVIPSELGYGERGWPPKIPGGATLVFEVELLKPER
modifications: Description of sequence: Construct Name: FKBP-252; Mutation(s): Q72R Q84E A117W DRD I136P
On to B8, for which the “FC (fold change)” value amounted to 1.3.

B9: FKBP-253 (protein)
chain: HCPIKSRKGDVLHMHYTGKLEDGTEFDSSLPRNQPFVFSLGTGERIKGWDQGLLGMCEGEKRKLVIPSELGYGERGWPPKIPGGATLVFEVELLKPER
modifications: Description of sequence: Construct Name: FKBP-253; Mutation(s): Q72R Q84E A117W V85R DRD I136P
Take B9: the “FC (fold change)” value came out at 2.3.

B10: FKBP-174 (protein)
chain: HCPIKGRKGDVLHAHYTGKLEDGTEFDSSLPRNQPFVFSLGTGEVIKGWDQGLLGMCEGEKRKLVIPSELGYGERGWPPKIPGGATLVFEGELLKIER
modifications: Description of sequence: Construct Name: FKBP-174; Mutation(s): Q72R Q84E A117W DRD M54A S36G V131G
Turning to B10, the “FC (fold change)” value was 0.9.

B11: FKBP-190 (protein)
chain: HCPIKSRKGDVLHAHYTGKLEDGTEFDSSLPRNQPFVFSLGTGERIKGWDQGLLGMCEGEKRKLVIPSELGYGERGWPPKIPGGATLVTEVELLKIER
modifications: Description of sequence: Construct Name: FKBP-190; Mutation(s): Q72R Q84E A117W V85R DRD M54A F129T
B11: the “FC (fold change)” value came to 0.9.

B12: FKBP-191: FKBP13 DRD-AcGFP construct of Table 10 (protein)
chain: HCPIKSRKSDVLHMHYTGKLEDGTEFDSSLPRNQPFVFSLGTGERIKGWDQGLLGMCEGEKRKLVIPSELGYGERGWPPKIPGGATLVFEVELLKIER
modifications: Description of sequence: Construct Name: FKBP-191; Mutation(s): Q72R Q84E A117W V85R DRD G49S
Take B12: the “FC (fold change)” value came to 50.6. Moreover, the EC90 under setting [1] worked out at 367 nM. Besides, the EC90 under setting [2] was determined as 391 nM.

B13: FKBP-175 (protein)
chain: HCPIKSRKGAVLHAHYIGKLEDGTEFDSSLPRNQPFVFSLGTGEVIKGWDQGLLGMCEGEKRKLVIPSELGYGERGWPPKIPGGATLVFEVELLKLER
modifications: Description of sequence: Construct Name: FKBP-175; Mutation(s): Q72R Q84E A117W DRD M54A D50L T57I I136L
Consider B13, for which the “FC (fold change)” value was 7.25.

B14: FKBP-194 (protein)
chain: HCPIKSRKGDVLHMHYTGKLEDGTEFDSSLPRNQPFVFSLGTGERIKGWDQGLLGMCEGEKRKVVIPSELGYGERGWPPKIPGGATLVFEVELLKIER
modifications: Description of sequence: Construct Name: FKBP-194; Mutation(s): Q72R Q84E A117W V85R DRD L104V
On to B14, for which the “FC (fold change)” value came out at 24.8. Besides, the EC90 under setting [1] was 102 nM. Also, the EC90 under setting [2] was 122 nM.

B15: FKBP-183 (protein)
chain: HCPIKSRKGDVLHAHYTGKLEDGTEFDSSLPRNQPFVFSLGTGERIKGWDQGLLGMCEGEKRKLVIPSELGYGERGWPPKIPGGATLVFEVEGLKIER
modifications: Description of sequence: Construct Name: FKBP-183; Mutation(s): Q72R Q84E A117W V85R DRD M54A L133G
Take B15: the “FC (fold change)” value came out at 4.

B16: FKBP-196 (protein)
chain: HCPIKSRKGDVLHMHYTGKLEDGTEFDSSLPRNQPFVFSLGTGERIKGWDQGLLGMCEGEKRKLVIPSELGYGERGWPPKIPGGATLVFEVELLKVER
modifications: Description of sequence: Construct Name: FKBP-196; Mutation(s): Q72R Q84E A117W V85R DRD I136V
With B16, the “FC (fold change)” value was determined as 34.7. Moreover, the 90% effect concentration (EC90) under setting [1] was found to be 115 nM. The EC90 under setting [2] stood at 113 nM.

B17: FKBP-193 (protein)
chain: HCPIKSRKGDVLHMHYTGKLEDGTEFDSSLPRNQPFVFSLGTGERIKGWAQGLLGMCEGEKRKLVIPSELGYGERGWPPKIPGGATLVFEVELLKIER
modifications: Description of sequence: Construct Name: FKBP-193; Mutation(s): Q72R Q84E A117W V85R DRD D90A
Take B17: the “FC (fold change)” value was 37.8. For the same molecule, the 90% effect concentration (EC90) under setting [1] came to 13000 nM. Moreover, the EC90 under setting [2] worked out at 15000 nM.

B18: FKBP-254 (protein)
chain: HCPIKSRKGDVLHMHYTGKLEDGTEFDSSLPRNQPFVFSLGTGEVIKGWDQGLLGMCEREKRKLVIPSELGYGERGWPPKIPGGATLVFEVELLKIER
modifications: Description of sequence: Construct Name: FKBP-254; Mutation(s): Q72R Q84E A117W DRD G99R
B18: the “FC (fold change)” value is recorded as 35.6. Moreover, the EC90 under setting [1] worked out at 369 nM. Besides, the EC90 under setting [2] worked out at 373 nM.

B19: FKBP-184 (protein)
chain: HCPIKGRKGDVLHAHYTGKLEDGTEFDSSLPRNQPFVFSLGTGERIKGWDQGLLGMCEGEKRKLVIPSELGYGERGWPPKIPGGATLVFEGELLKIER
modifications: Description of sequence: Construct Name: FKBP-184; Mutation(s): Q72R Q84E A117W V85R DRD M54A S36G V131G
With B19, the “FC (fold change)” value turned out to be 1.

B20: FKBP-160 (protein)
chain: HCPIKSRKGDVLHAHYTGKLEDGTEFDSSLPRNQPFVFSLGTGERIKGWDQGLLGMCEGEKRKLVIPSELGYGERGWPPKIPGGATLVFEVELLKIER
modifications: Description of sequence: Construct Name: FKBP-160; Mutation(s): Q72R Q84E A117W V85R DRD M54A
Take B20: the “FC (fold change)” value amounted to 25.7. In addition, the EC90 under setting [1] stood at 42.2 nM. The EC90 under setting [2] is 48.2 nM.

B21: FKBP-176 (protein)
chain: HCPIKSRKGDVLHAHYTGKLEDGTEFDSSLPRNQPFVFSLGTGEVIKGWDQGLLGMCEGEKRKLVIPSELGYGEREWPPKIPGGATLVFEVELLKIER
modifications: Description of sequence: Construct Name: FKBP-176; Mutation(s): Q72R Q84E A117W DRD M54A G116E
Regarding B21, the “FC (fold change)” value is reported as 6.8.
